Test results: patent US10221225B2, “Peptides and combination of peptides and scaffolds thereof for use in immunotherapy against colorectal carcinoma (CRC) and other cancers” (immatics biotechnologies GmbH, priority 2015, dated 2019)

Columns and labels:
[1] = target: HLA-A*02:01 (Homo sapiens, UniProt P04439, D140Y/D185E/D98H/E176V/E277Q/G131W/G231S/I119V/I121R/I166T/I218V/L300P/L318F/N151K/N90K/P208A/P217A/Q86G/Q94H/R138H/R169H/T345S); experiment: MHC binding assay (UV-ligand exchange, beta2m ELISA, peptide exchange yield); conditions: MHC class I binding score; binding to HLA-A*02:01 ranged by peptide exchange yield (UV-ligand exchange, β2m ELISA)
Excerpt: Candidate peptides for T cell based therapies according to the present invention were further tested for their MHC binding capacity (affinity). The individual peptide-MHC complexes were produced by UV-ligand exchange, where a UV-sensitive peptide is cleaved upon UV-irradiation, and exchanged with the peptide of interest as analyzed. Only peptide candidates that can effectively bind and stabilize the peptide-receptive MHC molecules prevent dissociation of the MHC complexes. To determine the yield of the exchange reaction, an ELISA was performed based on the detection of the light chain (β2m) of stabilized MHC complexes. The assay was performed as generally described in Rodenko et al. (Rodenko et al., 2006).
96 well MAXISorp plates (NUNC) were coated over night with 2 ug/ml streptavidin in PBS at room temperature, washed 4× and blocked for 1 h at 37° C. in 2% BSA containing blocking buffer. Refolded HLA-A*02:01/MLA-001 monomers served as standards, covering the range of 15-500 ng/ml. Peptide-MHC monomers of the UV-exchange reaction were diluted 100 fold in blocking buffer. Samples were incubated for 1 h at 37° C., washed four times, incubated with 2 ug/ml HRP conjugated anti-β2m for 1 h at 37° C., washed again and detected with TMB solution that is stopped with […]. Absorption was measured at 450 nm. Candidate peptides that show a high exchange yield (preferably higher than 50%, most preferred higher than 75%) are generally preferred for a generation and production of antibodies or fragments thereof, and/or T cell receptors or fragments thereof, as they show sufficient avidity to the MHC molecules and prevent dissociation of the MHC complexes.

[2] = test system: CD8+ T-cells; experiment: In vitro T-cell priming assay with aAPCs loaded with peptide/MHC and anti-CD28, pMHC multimer readout; format: cell-based, human; conditions: in vitro immunogenicity; for Wells positive: HLA-A*02 restricted peptides; for donors (percentage of positive donors) / wells (percentage of positive wells): HLA class I peptides
Excerpt: In order to obtain information regarding the immunogenicity of the TUMAPs of the present invention, the inventors performed investigations using an in vitro T-cell priming assay based on repeated stimulations of CD8+ T-cells with artificial antigen presenting cells (aAPCs) loaded with peptide/MHC complexes and anti-CD28 antibody.
In order to perform in vitro stimulations by artificial antigen presenting cells loaded with peptide-MHC complex (pMHC) and anti-CD28 antibody, the inventors first isolated CD8+ T-cells from fresh HLA-A*02 leukopheresis products via positive selection using CD8 microbeads (Miltenyi Biotec, Bergisch-Gladbach, Germany) of healthy donors obtained from the University clinics Mannheim, Germany, after informed consent.
PBMCs and isolated CD8+ lymphocytes were incubated in T-cell medium (TCM) until use consisting of RPMI-Glutamax (Invitrogen, Karlsruhe, Germany) supplemented with 10% heat inactivated human AB serum (PAN-Biotech, Aidenbach, Germany), 100 U/ml Penicillin/100 μg/ml Streptomycin (Cambrex, Cologne, Germany), 1 mM sodium pyruvate (CC Pro, Oberdorla, Germany), 20 μg/ml Gentamycin (Cambrex). 2.5 ng/ml IL-7 (PromoCell, Heidelberg, Germany) and 10 U/ml IL-2 (Novartis Pharma, Nürnberg, Germany) were also added to the TCM at this step.
Generation of pMHC/anti-CD28 coated beads, T-cell stimulations and readout was performed in a highly defined in vitro system using four different pMHC molecules per stimulation condition and 8 different pMHC molecules per readout condition.
The purified co-stimulatory mouse IgG2a anti human CD28 Ab 9.3 (Jung et al., 1987) was chemically biotinylated using Sulfo-N-hydroxysuccinimidobiotin as recommended by the manufacturer (Perbio, Bonn, Germany). Beads used were 5.6 μm diameter streptavidin coated polystyrene particles (Bangs Laboratories, Illinois, USA).
800,000 beads/200 μl were coated in 96-well plates in the presence of 4×12.5 ng different biotin-pMHC, washed and 600 ng biotin anti-CD28 were added subsequently in a volume of 200 μl. Stimulations were initiated in 96-well plates by co-incubating 1×10^6 CD8+ T-cells with 2×10^5 washed coated beads in 200 μl TCM supplemented with 5 ng/ml IL-12 (PromoCell) for 3 days at 37° C. Half of the medium was then exchanged by fresh TCM supplemented with 80 U/ml IL-2 and incubating was continued for 4 days at 37° C. This stimulation cycle was performed for a total of three times. For the pMHC multimer readout using 8 different pMHC molecules per condition, a two-dimensional combinatorial coding approach was used as previously described (Andersen et al., 2012) with minor modifications encompassing coupling to 5 different fluorochromes. Finally, multimeric analyses were performed by staining the cells with Live/dead near IR dye (Invitrogen, Karlsruhe, Germany), CD8-FITC antibody clone SK1 (BD, Heidelberg, Germany) and fluorescent pMHC multimers. For analysis, a BD LSRII SORP cytometer equipped with appropriate lasers and filters was used. Peptide specific cells were calculated as percentage of total CD8+ cells. Evaluation of multimeric analysis was done using the FlowJo software (Tree Star, Oregon, USA). In vitro priming of specific multimer+ CD8+ lymphocytes was detected by comparing to negative control stimulations.

Row | Substance | Peptide exchange [1] | Wells positive [2] | donors (percentage of positive donors) [2] | wells (percentage of positive wells) [2]
1 | 1 (ALIKQLFEA; listed as Homo sapiens) [compound 1] | ″+++″ (≥50 = +++) | ″+″ (<20% = +) |  | 
2 | 2 (ALLPRYFFL; listed as Homo sapiens) [compound 2] | ″++″ (≥20% = ++) | ″++++″ (>= 70% = ++++) |  | 
3 | 3 (RLIPDTLYSV; listed as Homo sapiens) [compound 3] | ″++++″ (≥75% = ++++) | ″+++″ (50%-69% = +++) |  | 
4 | 5 (WLFDDGGLTL; listed as Homo sapiens) [compound 5] | ″++++″ (≥75% = ++++) | ″++″ (20%-49% = ++) |  | 
5 | 7 (YLTRHLAVL; listed as Homo sapiens) [compound 7] | ″++″ (≥20% = ++) | ″+″ (<20% = +) |  | 
6 | 9 (ILDDHLSRV; listed as Homo sapiens) [compound 9] | ″++″ (≥20% = ++) | ″+″ (<20% = +) |  | 
7 | 10 (RMYNKIFAI; listed as Homo sapiens) [compound 10] | ″+++″ (≥50 = +++) | ″++++″ (>= 70% = ++++) |  | 
8 | 11 (YLFEKTFNM; listed as Homo sapiens) [compound 11] | ″+++″ (≥50 = +++) | ″+″ (<20% = +) |  | 
9 | 12 (ALVQGILERV; listed as Homo sapiens) [compound 12] | ″+++″ (≥50 = +++) | ″++++″ (>= 70% = ++++) |  | 
10 | 13 (FLLAEDTKV; listed as Homo sapiens) [compound 13] | ″+++″ (≥50 = +++) | ″++″ (20%-49% = ++) |  | 
11 | 17 (ALAAARVEL; listed as Homo sapiens) [compound 17] | ″+++″ (≥50 = +++) | ″++″ (20%-49% = ++) |  | 
12 | 18 (FLSSLKGGLL; listed as Homo sapiens) [compound 18] | ″+++″ (≥50 = +++) | ″+″ (<20% = +) |  | 
13 | 19 (RLYTKLLNEA; listed as Homo sapiens) [compound 19] | ″+++″ (≥50 = +++) | ″+++″ (50%-69% = +++) |  | 
14 | 21 (VLIDHRWVL; listed as Homo sapiens) [compound 21] | ″+++″ (≥50 = +++) | ″+″ (<20% = +) |  | 
15 | 22 (GLIDEVMVL; listed as Homo sapiens) [compound 22] | ″+++″ (≥50 = +++) | ″++″ (20%-49% = ++) |  | 
16 | 31 (LLYGKYVSV; listed as Homo sapiens) [compound 31] | ″+++″ (≥50 = +++) | ″++″ (20%-49% = ++) |  | 
17 | 32 (KLNTETFGV; listed as Homo sapiens) [compound 32] | ″++″ (≥20% = ++) | ″++″ (20%-49% = ++) |  | 
18 | 37 (GLFAGLGGAGA; listed as Homo sapiens) [compound 37] | ″+++″ (≥50 = +++) | ″+″ (<20% = +) |  | 
19 | 38 (SLAPTPVSA; listed as Homo sapiens) [compound 38] | ″++″ (≥20% = ++) | ″+″ (<20% = +) |  | 
20 | 42 (SILDDSFKL; listed as Homo sapiens) [compound 42] | ″++++″ (≥75% = ++++) | ″+″ (<20% = +) |  | 
21 | 47 (KLYERCEVV; listed as Homo sapiens) [compound 47] | ″++″ (≥20% = ++) | ″+″ (<20% = +) |  | 

Row | Substance | Peptide exchange [1] | Wells positive [2] | donors (percentage of positive donors) [2] | wells (percentage of positive wells) [2]
22 | 59 (LLTDNVVKL; listed as Homo sapiens) [compound 59] | ″+++″ (≥50 = +++) | ″+″ (<20% = +) |  | 
23 | 64 (KTLGKLWRL; listed as Homo sapiens) [compound 64] | ″++″ (≥20% = ++) | ″++++″ (>= 70% = ++++) |  | 
24 | 123 (KTLERSYLL; listed as Homo sapiens) [compound 123] | ″++″ (≥20% = ++) | ″+″ (<20% = +) |  | 
25 | 124 (RVLPPSALQSV; listed as Homo sapiens) [compound 124] | ″+++″ (≥50 = +++) | ″+″ (<20% = +) |  | 
26 | 127 (RLAELTVDEFLA; listed as Homo sapiens) [compound 127] | ″+++″ (≥50 = +++) | ″+″ (<20% = +) |  | 
27 | 132 (ALLNAILHSA; listed as Homo sapiens) [compound 132] | ″++″ (≥20% = ++) | ″+″ (<20% = +) |  | 
28 | 133 (RTFEKIEEV; listed as Homo sapiens) [compound 133] | ″++″ (≥20% = ++) | ″+″ (<20% = +) |  | 
29 | 136 (KLFDIFSQQV; listed as Homo sapiens) [compound 136] | ″+++″ (≥50 = +++) | ″++″ (20%-49% = ++) |  | 
30 | 141 (AVIEHLERL; listed as Homo sapiens) [compound 141] | ″++++″ (≥75% = ++++) | ″+″ (<20% = +) |  | 
31 | 142 (SLVQRVETI; listed as Homo sapiens) [compound 142] | ″+++″ (≥50 = +++) | ″+″ (<20% = +) |  | 
32 | 183 (TLQEVVTGV; listed as Homo sapiens) [compound 183] | ″+++″ (≥50 = +++) |  |  | 
33 | 184 (SLLDENNVSSYL; listed as Homo sapiens) [compound 184] | ″+++″ (≥50 = +++) |  |  | 
34 | 185 (VLYTGVVRV; listed as Homo sapiens) [compound 185] | ″+++″ (≥50 = +++) |  |  | 
35 | 186 (KMSEKILLL; listed as Homo sapiens) [compound 186] | ″+++″ (≥50 = +++) |  |  | 
36 | 187 (GLHNVVYGI; listed as Homo sapiens) [compound 187] | ″+++″ (≥50 = +++) |  |  | 
37 | 188 (FLVDGPRVQL; listed as Homo sapiens) [compound 188] | ″+++″ (≥50 = +++) |  |  | 
38 | 189 (AISEVIGKITA; listed as Homo sapiens) [compound 189] | ″+++″ (≥50 = +++) |  |  | 
39 | 190 (AMAEMVLQV; listed as Homo sapiens) [compound 190] | ″+++″ (≥50 = +++) |  |  | 
40 | 191 (QLFSEIHNL; listed as Homo sapiens) [compound 191] | ″++++″ (≥75% = ++++) |  |  | 
41 | 219 (FLDEKGRCV; listed as Homo sapiens) [compound 219] |  |  | +++ (50%-69% = +++) | ++ (20%-49% = ++)
42 | 220 (KMDPVAYRV; listed as Homo sapiens) [compound 220] |  |  | ++++ (>=70% = ++++) | +++ (50%-69% = +++)
